Reference: US20210163614A1 (GMAX BIOPHARM, published 2021)
Where a chain is given by its changes, count along the chain named.

Assays:
[1] = biological target: T1, human APJ (apelin receptor) (human, UniProt P35414 1-380); experiment: cell-based or functional assay
T1 construct: Expressed on the membrane of stably transfected CHO-DHFR- cells; also called hAPJ; APJ receptor
T1 sequence: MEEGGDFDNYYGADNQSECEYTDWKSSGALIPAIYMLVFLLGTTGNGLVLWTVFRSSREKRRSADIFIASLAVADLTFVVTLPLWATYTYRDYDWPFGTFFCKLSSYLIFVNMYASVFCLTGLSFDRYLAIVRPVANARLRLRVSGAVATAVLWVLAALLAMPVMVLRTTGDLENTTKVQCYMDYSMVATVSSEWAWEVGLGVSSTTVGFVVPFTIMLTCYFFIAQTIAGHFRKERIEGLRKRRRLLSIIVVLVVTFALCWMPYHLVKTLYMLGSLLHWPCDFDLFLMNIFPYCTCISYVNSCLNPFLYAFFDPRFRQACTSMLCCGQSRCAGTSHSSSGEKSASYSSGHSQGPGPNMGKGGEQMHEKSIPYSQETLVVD

[2] = biological target: T1, human APJ (apelin receptor); experiment: FACS on CHO-DHFR-hAPJ cells, antibody at 500 nM and 4 nM, blank CHO-DHFR- cells as negative control
Experimental: PBS containing EDTA was used to detach and collect 10⁵ CHO-DHFR-hAPJ cells into 1.5 mL EP tubes. The supernatant was removed after centrifugation. The negative control sample was resuspended with a FACS loading buffer (PBS, 2% FBS). For the positive control, 200 μL antibody supernatant with certain concentration was added to resuspend cells and then incubated at room temperature; the cells were then centrifuged at 1500 rpm to remove the supernatant, washed with a FACS loading buffer and centrifuged again. The cells were resuspended followed by addition (200 μL/well) of a FITC labeled goat anti-mouse fluorescent secondary antibody at 1:50 dilution and incubated at room temperature for 30 min in the dark. Supernatant was removed after centrifugation, cells were washed with FACS loading buffer, centrifuged again and resuspended with the loading buffer for analysis.

B1: fusion protein of hAPJ antibody L5H5 and Linker2-Elabela-11 (protein, not shown: a dimerising Fc or GST; large carriers)
heavy (part 1 of 2): EIQLVESGGGLVKPGGSLRLSCAASGFTFSSYAMSWVRQAPGKGLEWVASISSGGSIYLPDSLKGRFTISRDNAKNSLYLQMNSLRAEDTAVYYCTRGRGNSSAWFAYWGQGTLVTVSS
heavy (part 2 of 2): GGGGSGGGGSCMPLHSRVPFP
light: DVLMTQSPLSLPVTLGQPASISCRSDQSLVHRTGNTHLDWYQQRPGQSPRLLIYKVSNRFSGVPDRFSGSGSGTDFTLKISRVEAEDVGVYYCFQASHIPFTFGQGTKVEIKR
Work on B1 yielded an EC50, reporter gene assay, activation of Elabela/APJ signaling pathway [1] of 3.61 nM.

B2: fusion protein of hAPJ antibody L5H5 and Linker2-EA5 (protein, not shown: a dimerising Fc or GST; large carriers)
heavy (part 1 of 2): B1 heavy (part 1 of 2)
heavy (part 2 of 2): GGGGSGGGGSQRRCMPLHSRVPAP
light: B1 light
B2 showed an EC50, reporter gene assay, activation of Elabela/APJ signaling pathway [1] of 2.55 nM.

B3: fusion protein of hAPJ antibody L5H5 and Linker2-EA4 (protein, not shown: a dimerising Fc or GST; large carriers)
heavy (part 1 of 2): B1 heavy (part 1 of 2)
heavy (part 2 of 2): GGGGSGGGGSQRRCLSHKGPMPF
light: B1 light
B3 gave an EC50, reporter gene assay, activation of Elabela/APJ signaling pathway [1] of 5.4 nM.

B4: fusion protein of hAPJ antibody L5H5 and Linker2-EA3 (protein, not shown: a dimerising Fc or GST; large carriers)
heavy (part 1 of 2): B1 heavy (part 1 of 2)
heavy (part 2 of 2): GGGGSGGGGSQRRCMPLHSRVPMPF
light: B1 light
With B4 the EC50, reporter gene assay, activation of Elabela/APJ signaling pathway [1] was 20.3 nM.

B5: fusion protein of hAPJ antibody L5H5 and Linker2-EA1 (protein, not shown: a dimerising Fc or GST; large carriers)
heavy (part 1 of 2): B1 heavy (part 1 of 2)
heavy (part 2 of 2): GGGGSGGGGSQRPRLHSRVPFP
light: B1 light
For B5, the EC50, reporter gene assay, activation of Elabela/APJ signaling pathway [1] was 4.95 nM.

B6: hAPJ antibody L4H4 (antibody, V domains shown)
VH: EIKLVESGGGLVKPRGSLKLSCAASGFTFSSYAMSWVRQTPEKRLEWVASISSGGSIYLPDSLKGRFTISRDNAWNILYLQMNSLKSEDTAMYYCTRGRGNSSAWFAYWGQGTLVTVSA
VL: B1 light with S7T, T14S, Q17D, P18Q, Q42L, R44K, R50K, V88L, Q105S, V109L
notes: also called mouse ascites antibody L4H4
B6: binds [2].

B7: fusion protein of hAPJ antibody L5H5 and Linker2-EA2 (protein, not shown: a dimerising Fc or GST; large carriers)
heavy (part 1 of 2): B1 heavy (part 1 of 2)
heavy (part 2 of 2): GGGGSGGGGSQRPRLSHKGPFP
light: B1 light
B7 showed an EC50, reporter gene assay, activation of Elabela/APJ signaling pathway [1] of 2.16 nM.

B8: hAPJ antibody L1H1 (antibody, V domains shown)
VH: EVQLIETGGGLVQPTGSLQLSCAASGFPFNINAMNWVRQAPGKGLEWVARIRSKSNNYATYYADSVKDRFTISRDDSQSILYLQMNNLKTEDSAMYFCVRGPYLYAMDYWGQGTSVTVSS
VL: DIQMNQSPSSLSASLGDTITITCHASQNIHVWLSWYQQKPGNIPKLLIYKASNLHTGVPSRFSGSGSGTGFTLTISSLQPEDIATYYCQQGHSYPLTFGGGTKLEIKR
notes: also called mouse ascites antibody L1H1
B8: binds [2].
